The source of these data is US10189887B2, “Polypeptides and uses thereof for reducing CD95-mediated cell motility” (INSERM (INSTITUT NATIONAL DE LA SANTÉ ET DE LA RECHERCHE …, priority 2014, dated 2019).

The subject of assay [1] is CD95-mediated Ca^2+ response. Description: Calcium response to cl-CD95L in Jurkat cells (Fura2/FuraPE3 video imaging). Format: cell-based. The following applies: 100 ng/ml cl-CD95L. Here is the method:
(§1) Cells were loaded with Fura2-AM (1 μM) at resting temperature for 30 min in Hank's Balanced Salt Solution (HBSS). After washing with HBSS, the cells were incubated for 15 min in the absence of Fura2-AM to complete de-esterification of the dye. Cells were placed in a thermostated chamber (37° C.) of an inverted epifluorescence microscope (Olympus IX70) equipped with a ×40, UApo/340-1.15 W water-immersion objective (Olympus), and fluorescence micrograph images were captured at 510 nm and at 12-bit resolution by a fast-scan camera (CoolSNAP fx Monochrome, Photometrics). To minimize UV light exposure, 4×4 binning function was used. Fura2-AM was alternately excited at 340 and 380 nm, and ratios of the resulting images (excitations at 340 and 380 nm and emission filter at 520 nm) were produced at constant intervals (5 s or 10 s according to the stimulus). […] Fluorescent images were pseudocolored using the IMD display mode in MetaFluor and assembled without further manipulation in Photoshop (Adobe). Raw data were acquired with MetaFluor and graphed in Origin (OriginLab). [Ca^2+]i was calculated using the following equation: [Ca^2+]i=Kd(R−Rmin)/(R−Rmax)×Sf2/Sf1, where Kd is the Fura2-AM dissociation constant at the two excitation wavelengths (F340/F380); Rmin is the fluorescence ratio in the presence of minimal calcium, obtained by chelating Ca^2+ with 10 mM EGTA; Rmax is the fluorescence ratio in the presence of excess calcium, obtained by treating cells with 1 μM ionomycin; Sf2 is the fluorescence of the Ca^2+-free form; and Sf1 is the fluorescence of the Ca^2+-bound form of Fura2-AM at excitation wavelengths of 380 and 340 nm, respectively. In some experiments cells were placed in a Ca^2+-free medium consisting of the HBSS described above in which CaCl2 was omitted and 100 μM EGTA was added in order to chelate residual Ca^2+ ions. This medium was added to the cells just before recording to avoid leak of the intracellular calcium stores.
T cells were loaded with Fura-PE3-AM (1 μM) at room temperature for 30 min in Hank's Balanced Salt Solution (HBSS). After washing, the cells were incubated for 15 min in the absence of Fura-PE3-AM to complete de-esterification of the dye. Cells were placed in the temperature controlled chamber (37° C.) of an inverted epifluorescence microscope (Olympus IX70) equipped with an ×40 UApo/340-1.15 W water-immersion objective (Olympus), and fluorescence micrograph images were captured at 510 nm and 12-bit resolution by a fast-scan camera (CoolSNAP fx Monochrome, Photometrics). To minimize UV light exposure, a 4×4 binning function was used. Fura-PE3 was alternately excited at 340 and 380 nm, and the ratios of the resulting images (emission filter at 520 nm) were produced at constant intervals (10 seconds). The Fura-PE3 ratio (Fratio 340/380) images were analyzed offline with Universal Imaging software, including Metafluor and Metamorph. Fratio reflects the intracellular Ca^2+ concentration changes. Each experiment was repeated 3 times, and the average of more than 20 single-cell traces was analyzed.

Assay [2] deals with CD95-mediated Ca^2+ response. Kind of assay: Calcium response to cl-CD95L in activated PBL. Format: cell-based, human. As to conditions: human PBLs pretreated 1 μM, 1 h (positive control); 100 ng/ml cl-CD95L. The procedure: as §1
All cells were purchased from ATCC (Molsheim Cedex, France). T leukemic cell lines CEM, H9 and Jurkat were cultured in RPMI supplemented with 8% heat-inactivated FCS (v/v) and 2 mM L-glutamine at 37° C. in a 5% CO2 incubator. CEM-IRC cell expressing a low amount of plasma membrane CD95 was described in (Beneteau et al., 2007; Beneteau et al., 2008). […]
T cells were loaded with Fura-PE3-AM (1 μM) at room temperature for 30 min in Hank's Balanced Salt Solution (HBSS). […] Cells were placed in the temperature controlled chamber (37° C.) of an inverted epifluorescence microscope (Olympus IX70) equipped with an ×40 UApo/340-1.15 W water-immersion objective (Olympus), and fluorescence micrograph images were captured at 510 nm and 12-bit resolution by a fast-scan camera (CoolSNAP fx Monochrome, Photometrics). […]

The subject of assay [3] is Th17 cells. Description: Endothelial transmigration of CD4 T-cell subsets (Th17, Th1, Treg), Boyden chamber. Type of assay: cell-based, human. The procedure: Animal experiments were subject to ethical review by the University of Nottingham were appropriate and conducted using PPL 40/3412 in accordance with the UK Home Office guidance and under ASPA (1986). For the generation of murine T-cell subsets, spleens were removed from C57Bl/6 mice and single cell suspensions prepared. CD4^+CD62L^+ naïve cells were isolated using Miltenyi Biotec microbeads. Naïve human CD4^+ T-cells were prepared using the Miltenyi Biotec naïve CD4^+ T-cell isolation kit II, which are sorted produced a 99% pure population of CD4^+CD45RA^+ cells. Purified cells were cultured in complete IMDM media all with α-CD3 (1 μg/ml), α-CD28 (2 μg/ml), and as follows; Th1 cells IL-12 (10 ng/ml) with α-IL-4 (10 μg/ml), Th2 cells IL-4 (10 ng/ml) and α-IFN-γ (10 μg/ml), Th17 cells Il-6 (10 ng/ml), TGF-β1 (2 ng/ml), α-IFN-γ (10 μg/ml) with α-IL-4 (10 μg/ml), and Tregs IL-2 (10 ng/ml) TGF-β1 (5 ng/ml), α-IFN-γ (10 μg/ml) and α-IL-4 (10 μg/ml). Cells were converted to T-cell subsets over five days as outlined above. All cytokines were supplied by PeproTech (London, UK). Mouse CD3 (clone 2C11); human CD3 (UCHT1); mouse CD28 (37.51); human CD28 (CD28.2); mouse IL-4 (11B11); human IL-4 (MP4-25D2); mouse IFN-γ (XMG1.2); human IFN-γ B27 came from BD Pharmigen.
After hydration of the Boyden chamber membranes containing 3 μm pore size membranes (Millipore, Molsheim, France), activated T-lymphocytes (10^6) were added to the top chamber on a confluent monolayer of HUVEC in a low serum (1%)-containing medium. […] In experiments using human sera, 500 μl of serum from either healthy donors or SLE patients was added in the lower reservoir. Cells were cultured for 24 h at 37° C. in a 5% CO2 humidified incubator. Transmigrated cells were counted in the lower reservoir by flow cytometry using a standard of 2.5×10^4 fluorescent beads (Flow-count, Beckman Coulter).
Blocking antibodies were used against E-selectin and ICAM-1 in the CHEMICON® endothelial cell adhesion assay (Millipore). Briefly, after activation of the endothelial cell layer with TNF-α, anti-mouse Ig controls, anti-E-selectin or anti-ICAM-1 were added at final concentrations of 10 μg/ml. Thereafter calcein-AM-stained T-cell subsets were incubated for 24 hours and unbound cells are washed. Cells attached to the endothelium were assessed using fluorescence plate reader.

Assay [4] deals with Th17 cell accumulation. Description: In vivo administration of cl-CD95L: cell accumulation in peritoneal cavity and spleen. On the set-up: species or system C57BL/6 mice. As to conditions: 24 hours. The procedure:
Female C57BL/6 mice (Harlan UK) aged between 8-10 weeks were placed in groups of 6 and administered IP. Twenty-four hours following injection, mice were sacrificed and periteonial cavities were washed with 5 ml of PBS/2% FCS, blood smears were prepared, and spleens were collected. Blood smears and cytospins of periteonal cells (PECs) were stained with Giemsa and differential counts performed. Single cell suspensions of spleens and PECs were prepared, cell counts performed, CD4+CD62− T-cells were isolated with Miltenyi microbeads and number of cells determined by trypan blue exclusion. For experiments where animals received TAT-mCID or control peptides, 800 μg (40 mg/kg) was injected IP 2 hrs prior to administration of cl-CD95L. All mouse experiments were performed under ethical approval from the University of Nottingham local animal ethics committee and adhering to UK Home Office guidelines under the Project License 40/3412.
Single cell suspensions of spleens and PECs were prepared as described above. RNA was extracted from CD4 T-cells using phenol/chloroform. cDNA was prepared using the Promega GO-Script Reverse Transcription Kit and used in Real-Time PCR. Briefly, cDNA samples were subject to Taqman assay performed on a Roche Lightcycler. Results are reported as expression levels were calculated using the Δct method relative to HPRT.

Turning to `C1CCC[C@H]2CCCN3CC[C@@H](CCCCCC[C@@H]4CCCN5CC[C@@H](CC1)O[C@@H]45)O[C@@H]23` [Xestospongin C, reference compound], the “calcium response to cl-CD95L” value in assay [1] (Jurkat cells pretreated 2 μM, 20 minutes) is on record as “completely blocked the initial component of the calcium response”. Further, the “CD95-mediated Ca^2+ response” value in assay [2] is reported as “abrogated the CD95-mediated Ca^2+ response”.

For the molecule Ryanodine, the “calcium response to cl-CD95L” value in assay [1] (Jurkat cells pretreated 20 minutes with 10 μM Ryanodine, alone or with Xestospongin C) is on record as “did not reduce the initial peak but blocked the plateau phase”.

B1: CD95-Fc: decoy receptor for CD95L (protein)
chain: QVTDINSKGLELRKTVTTVETQNLEGLHHDGQFCHKPCPPGERKARDCTVNGDEPDCVPCQEGKEYTDKAHFSSKCRRCRLCDEGHGLEVEINCTRTQNTKCRCKPNFFCNSTVCEHCDPCTKCEHGIIKECTLTSNTKCKEEGSRSN
modifications: left off: a dimerising Fc or GST
notes: decoy receptor for CD95L
In the case of B1, the “Th17 cell migration induced by SLE sera” value in assay [3] (pre-incubation of SLE sera with decoy receptor, increasing concentrations) is given as “prevented Th17 cell migration in a dose-dependent manner”.

B2: cl-CD95L: recombinant homotrimeric metalloprotease-cleaved CD95L from supernatant of transfected HEK 293 cells (protein)
chain: QIGHPSPPPEKKELRKVAHLTGKSNSRSMPLEWEDTYGIVLLSGVKYKKGGLVINETGLYFVYSKVYFRGQSCNNLPLSHKVYMRNSKYPQDLVMMEGKMMSYCTTGQMWARSSYLGAVFNLTSADHLYVNVSELSLVNFEESQTFFGLYKL
B2: the “transmigration of CD4 T-cell subsets” value in assay [3] (Th1 and Th17 versus Th0 and Th2, cl-CD95L 200 ng/ml) is “more efficient to promote the transmigration of Th1 and Th17 lymphocytes”. The “endothelial transmigration of Th17 T cells” value in assay [3] (human Th17 cells, presence or absence of cl-CD95L) is “enhanced endothelial transmigration of Th17 T cells”. In addition, the “endothelial transmigration of Treg cells” value in assay [3] (human regulatory T-cells, presence or absence of cl-CD95L) is recorded as “failed to induce significant Treg transmigration”. In addition, in assay [4] (single IP dose cl-CD95L (200 ng) versus vehicle), the “total cell counts from the PEC and spleen” value was “significant increase in the number of lymphocytes”. In addition, in assay [4] (single IP dose cl-CD95L (200 ng)), the “Th17 lineage markers (IL-17, IL-23R, CCR6) in recruited activated CD4+ T cells, Q-PCR” value was “induced the recruitment of Th17 cells”.
